Molecular target: T1, CD20 (human, UniProt P11836 1-297)
T1 sequence (looked up): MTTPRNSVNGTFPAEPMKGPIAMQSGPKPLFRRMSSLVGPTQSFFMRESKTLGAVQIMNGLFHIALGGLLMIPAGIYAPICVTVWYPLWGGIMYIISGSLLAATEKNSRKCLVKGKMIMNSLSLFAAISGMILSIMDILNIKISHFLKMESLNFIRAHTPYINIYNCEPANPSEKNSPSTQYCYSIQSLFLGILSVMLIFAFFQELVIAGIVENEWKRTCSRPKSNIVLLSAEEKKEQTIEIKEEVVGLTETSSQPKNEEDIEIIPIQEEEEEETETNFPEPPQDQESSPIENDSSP
Assay: cell-based or functional assay

B1: rituximab (antibody, V domains shown)
VH: QVQLQQPGAELVKPGASVKMSCKASGYTFTSYNMHWVKQTPGRGLEWIGAIYPGNGDTSYNQKFKGKATLTADKSSSTAYMQLSSLTSEDSAVYYCARSTYYGGDWYFNVWGAGTTVTVSA
VL: QIVLSQSPAILSASPGEKVTMTCRASSSVSYIHWFQQKPGSSPKPWIYATSNLASGVPVRFSGSGSGTSYSLTISRVEAEDAATYYCQQWTSNPPTFGGGTKLEIK
- cell size (forward scatter) of CAR T cells after stimulation with Raji, Daudi or Rec-1 cells pre-incubated with rituximab, relative to no rituximab: > 85%
- cell size (forward scatter) of CAR T cells incubated with FL-18 cells at 200 µg/ml rituximab, relative to control: 73%
- proliferation (CFSE dilution) of Leu16-28-BB-z-tEGFR CAR T cells with Raji, Daudi, Rec-1, FL-18 targets, rituximab up to 200 µg/ml, relative to no rituximab: > 96%

Reference: US20190106501A1 (FRED HUTCHINSON CANCER RESEARCH CENTER, published 2019)
